Several values for one entry are separate records, joined by “and”; a condition that tells them apart may be missing. Equal values may be shown once. Read-outs that look alike come from different tables or passages of the source.

We go through 6 substances from publication PMC11187062.

For experiment [1], the target named is UHRF1 PHD finger PHD (Homo sapiens) (UniProt Q96T88). Conditions: cited from earlier work.
The target of experiment [2] is UHRF1 PHD finger PHD (Mus musculus) (UniProt Q8VDF2). Particulars: cited from earlier work.
Sequence of UHRF1 PHD finger PHD (Mus musculus) (Q8VDF2 301-374): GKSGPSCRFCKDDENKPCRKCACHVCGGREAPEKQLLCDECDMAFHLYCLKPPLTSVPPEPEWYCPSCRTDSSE
Experiment [3] addresses hPHD D334A/D337A (human) (UniProt Q96T88). As to the kind of experiment: ITC; Microcal PEAQ-ITC, 293 K, 10 mM HEPES pH 7.5, 150 mM NaCl, 0.25 mM TCEP; one-site model; at least three independent titrations. On the technique in general: ITC needs no label: the signal is the heat of the interaction.
Experiment [4] deals with UHRF1 PHD finger PHD (Mus musculus) (UniProt Q8VDF2). Particulars: cited from earlier work. The source holds these as a separate data set.
Experiment [5] has as its target UHRF1 PHD finger PHD (Homo sapiens) (UniProt Q96T88). Conditions: cited from earlier work. This is another data set of the same source.
Experiment [6] deals with human UHRF1 PHD finger, residues 299-366, D334A/D337A (human) (UniProt Q96T88). As to the kind of experiment: ITC; Microcal PEAQ-ITC, 293 K, 10 mM HEPES pH 7.5, 150 mM NaCl, 0.25 mM TCEP, one-site model; which partner was titrated is not stated; single titrations and their means.
Sequence of human UHRF1 PHD finger, residues 299-366, D334A/D337A (human) (Q96T88 299-366 D334A/D337A): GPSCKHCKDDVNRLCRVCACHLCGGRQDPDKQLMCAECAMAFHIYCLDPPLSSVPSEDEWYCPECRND

Sequence of UHRF1 PHD finger PHD (Homo sapiens) (Q96T88 307-369): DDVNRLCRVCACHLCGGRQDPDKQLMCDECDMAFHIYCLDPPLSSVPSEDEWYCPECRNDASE
Sequence of PAF15 1-10 (Q15004 whole entry, looked up, tested part not stated): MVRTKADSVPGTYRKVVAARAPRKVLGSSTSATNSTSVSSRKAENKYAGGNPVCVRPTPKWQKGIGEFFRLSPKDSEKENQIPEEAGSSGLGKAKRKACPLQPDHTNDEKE
Sequence of PAF15 (Q15004 whole entry): as the sequence (Q15004 whole entry, looked up, tested part not stated) above
Sequence of hPHD D334A/D337A (human) (Q96T88 299-366 D334A/D337A): as the sequence (Q96T88 299-366 D334A/D337A) above
Sequence of DPPA3 (Q8QZY3 whole entry): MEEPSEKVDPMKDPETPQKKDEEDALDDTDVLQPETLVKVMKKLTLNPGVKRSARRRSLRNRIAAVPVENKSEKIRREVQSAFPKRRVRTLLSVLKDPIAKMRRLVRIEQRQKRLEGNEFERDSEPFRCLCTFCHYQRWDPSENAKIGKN

Consider histone H3 1-15 (from UniProt P68431), for which, in experiment [1], the dissociation constant (Kd) (in general, the concentration at which binding is half-saturated) was 1700 nM.

In the case of PAF15 (from UniProt Q15004), the Kd in experiment [2] is 3.52 µM. “human DPPA3, residues 81–118 (recombinant) (domain or fragment)” gave a Kd in experiment [3] of over 115 µM. Consider DPPA3 (from UniProt Q8QZY3), for which the Kd in experiment [4] is 27.7 nM. Take PAF15 1-10 (from UniProt Q15004): the dissociation constant Kd in experiment [5] is 2200 nM. For the substance “human DPPA3, residues 81-118 (domain or fragment)”, the Kd in experiment [6] was 114 µM and 91 µM and 139 µM.
